A word on the Ki: it is the dissociation constant of the complex between target and ligand, obtained from inhibition or displacement.

Drawing on EP1752538A1 (BAYER CORPORATION, dated 1997), this text covers Ki for three molecules.

Like-named read-outs stand apart in the source and are kept apart here. Where no end group is shown, it is not given here.

One assay has as its target human factor Xa (human, UniProt P00742 41-488, limits assumed). The experiment in a line: enzyme inhibition kinetics, factor Xa 0.87 nM.
The target in assay [1] is T1, human plasmin (human, UniProt P00747 97-810).
T1 construct: Active enzyme
T1 sequence (P00747 97-810 limits assumed): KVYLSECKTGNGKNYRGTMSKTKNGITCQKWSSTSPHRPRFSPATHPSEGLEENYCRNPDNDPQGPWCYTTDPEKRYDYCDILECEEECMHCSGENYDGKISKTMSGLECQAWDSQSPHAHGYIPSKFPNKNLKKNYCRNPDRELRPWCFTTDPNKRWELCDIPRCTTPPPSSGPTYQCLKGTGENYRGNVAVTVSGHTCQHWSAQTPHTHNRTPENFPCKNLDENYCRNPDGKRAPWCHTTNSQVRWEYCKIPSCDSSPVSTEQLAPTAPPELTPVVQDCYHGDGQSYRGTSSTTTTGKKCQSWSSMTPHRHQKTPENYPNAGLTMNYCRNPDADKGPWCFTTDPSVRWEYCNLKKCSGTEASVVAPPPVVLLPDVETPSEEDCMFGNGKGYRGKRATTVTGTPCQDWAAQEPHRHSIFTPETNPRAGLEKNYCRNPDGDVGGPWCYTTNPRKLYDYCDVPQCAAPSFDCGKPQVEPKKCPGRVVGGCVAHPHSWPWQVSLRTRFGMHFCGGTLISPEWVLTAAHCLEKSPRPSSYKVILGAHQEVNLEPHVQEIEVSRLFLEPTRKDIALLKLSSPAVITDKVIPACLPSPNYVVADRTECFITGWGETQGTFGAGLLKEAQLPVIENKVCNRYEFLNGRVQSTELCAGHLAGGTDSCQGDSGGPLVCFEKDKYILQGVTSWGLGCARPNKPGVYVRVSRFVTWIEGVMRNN
The experiment in a line: enzyme inhibition kinetics, plasmin 50 pM.

The target of the next assay is human tissue kallikrein (human, UniProt P06870 25-262). Put plainly: enzyme inhibition kinetics, tissue kallikrein 0.35 nM, PFR-AMC substrate.
Sequence of human tissue kallikrein (P06870 25-262 limits assumed): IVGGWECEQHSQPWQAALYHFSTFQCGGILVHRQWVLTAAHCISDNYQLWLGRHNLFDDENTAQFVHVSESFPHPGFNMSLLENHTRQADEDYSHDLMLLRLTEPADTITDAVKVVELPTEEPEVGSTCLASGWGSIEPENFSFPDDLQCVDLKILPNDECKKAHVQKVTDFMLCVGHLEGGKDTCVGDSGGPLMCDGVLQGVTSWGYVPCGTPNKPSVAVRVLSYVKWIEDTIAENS
The next assay concerns the target T2, Factor XIa (Homo sapiens (Human), UniProt P03951 19-387; P03951 388-625, Activated enzyme cleaved after Arg387 of the precursor. The native molecule is a disulfide-linked homodimer of heavy-plu [CUT]).
T2 construct: also called FXIa
The experiment in a line: enzyme inhibition kinetics, factor XIa 0.1 nM.

Assay [2] concerns the target T3, bovine pancreatic kallikrein (bovine).
T3 construct: also called immobilized bovine pancreatic kallikrein; kallikrein-sepharose
Put plainly: enzyme inhibition kinetics, kallikrein 100 pM.

Assay [3] deals with T4, bovine trypsin (type III) (bovine, UniProt P00760 24-246).
T4 construct: Active enzyme, active-site titrated
T4 sequence (P00760 24-246): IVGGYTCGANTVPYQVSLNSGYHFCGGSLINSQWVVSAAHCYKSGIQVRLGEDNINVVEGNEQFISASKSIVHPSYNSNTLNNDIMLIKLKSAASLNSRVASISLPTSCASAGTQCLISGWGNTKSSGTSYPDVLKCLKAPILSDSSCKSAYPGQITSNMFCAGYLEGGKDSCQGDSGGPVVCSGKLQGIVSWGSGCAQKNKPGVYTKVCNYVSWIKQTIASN
The experiment in a line: enzyme inhibition kinetics, trypsin 48.5 pM.

In a further assay the target is T5, Tissue Factor VIIa.
T5 construct: Complex of tissue factor and factor VIIa; no method is described for it; also called tissue factor VIIa complex
The experiment in a line: enzyme inhibition.

Assay [4] concerns the target T6, tissue plasminogen activator (single chain form from human melanoma cell culture) (human, UniProt P00750 36-562, limits assumed).
T6 construct: also called tPA
Put plainly: enzyme inhibition, tPA 7.5 nM, chromogenic pNA substrate.

Another assay concerns the target T7, human plasma kallikrein (human, UniProt P03952 20-638).
T7 construct: Active enzyme
Put plainly: enzyme inhibition kinetics, kallikrein 2.5 nM.

Another assay has as its target Bovine chymotrypsin (bovine, UniProt P00766 1-245). Put plainly: enzyme inhibition kinetics, chymotrypsin 5 nM.
Assay [5] concerns the target T3, bovine pancreatic kallikrein. The experiment in a line: enzyme inhibition kinetics, kallikrein 92.0 pM.
For assay [6], the target named is T4, bovine trypsin (type III). Put plainly: enzyme inhibition kinetics, trypsin 48.5 pM. The source holds these as a separate data set.
Assay [7] deals with T1, human plasmin. The experiment in a line: enzyme inhibition kinetics, plasmin 50 pM. This is another data set of the same source.

T2 sequence (P03951 19-387 limits assumed, form in doubt, chain 1 of 2): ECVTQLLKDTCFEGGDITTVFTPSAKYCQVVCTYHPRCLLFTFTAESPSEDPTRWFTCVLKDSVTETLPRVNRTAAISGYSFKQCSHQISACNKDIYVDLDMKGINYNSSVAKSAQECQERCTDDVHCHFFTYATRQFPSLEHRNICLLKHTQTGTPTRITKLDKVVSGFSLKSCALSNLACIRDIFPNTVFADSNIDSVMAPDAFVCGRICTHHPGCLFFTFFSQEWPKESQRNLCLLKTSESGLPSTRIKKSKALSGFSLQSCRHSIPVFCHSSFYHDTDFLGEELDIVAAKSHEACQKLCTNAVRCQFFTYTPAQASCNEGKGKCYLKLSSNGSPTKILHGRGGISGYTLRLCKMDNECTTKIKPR
T2 sequence (P03951 388-625 limits assumed, form in doubt, chain 2 of 2): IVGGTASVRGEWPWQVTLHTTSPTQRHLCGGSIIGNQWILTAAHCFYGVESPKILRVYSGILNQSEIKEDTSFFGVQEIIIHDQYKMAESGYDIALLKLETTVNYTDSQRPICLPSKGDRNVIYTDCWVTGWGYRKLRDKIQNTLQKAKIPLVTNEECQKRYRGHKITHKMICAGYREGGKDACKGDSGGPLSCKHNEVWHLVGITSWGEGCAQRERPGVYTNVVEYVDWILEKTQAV
T7 sequence (P03952 20-638 limits assumed): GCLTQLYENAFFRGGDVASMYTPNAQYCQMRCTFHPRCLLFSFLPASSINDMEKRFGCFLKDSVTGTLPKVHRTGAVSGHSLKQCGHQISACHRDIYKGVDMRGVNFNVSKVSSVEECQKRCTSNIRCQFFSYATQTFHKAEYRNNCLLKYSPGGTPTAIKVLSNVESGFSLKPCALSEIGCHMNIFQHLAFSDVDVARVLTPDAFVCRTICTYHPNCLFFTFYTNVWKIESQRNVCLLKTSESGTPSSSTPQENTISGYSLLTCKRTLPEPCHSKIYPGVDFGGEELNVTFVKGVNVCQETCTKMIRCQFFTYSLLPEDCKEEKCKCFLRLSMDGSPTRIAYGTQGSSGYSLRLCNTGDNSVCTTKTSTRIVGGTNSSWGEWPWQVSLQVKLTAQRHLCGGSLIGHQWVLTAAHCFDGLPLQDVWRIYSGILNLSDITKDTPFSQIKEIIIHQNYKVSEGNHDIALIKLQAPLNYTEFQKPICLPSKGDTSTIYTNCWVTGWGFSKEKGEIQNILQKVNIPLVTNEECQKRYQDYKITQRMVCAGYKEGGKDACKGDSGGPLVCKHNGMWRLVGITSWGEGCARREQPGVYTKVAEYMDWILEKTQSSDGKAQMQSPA
T6 sequence (P00750 36-562 limits assumed): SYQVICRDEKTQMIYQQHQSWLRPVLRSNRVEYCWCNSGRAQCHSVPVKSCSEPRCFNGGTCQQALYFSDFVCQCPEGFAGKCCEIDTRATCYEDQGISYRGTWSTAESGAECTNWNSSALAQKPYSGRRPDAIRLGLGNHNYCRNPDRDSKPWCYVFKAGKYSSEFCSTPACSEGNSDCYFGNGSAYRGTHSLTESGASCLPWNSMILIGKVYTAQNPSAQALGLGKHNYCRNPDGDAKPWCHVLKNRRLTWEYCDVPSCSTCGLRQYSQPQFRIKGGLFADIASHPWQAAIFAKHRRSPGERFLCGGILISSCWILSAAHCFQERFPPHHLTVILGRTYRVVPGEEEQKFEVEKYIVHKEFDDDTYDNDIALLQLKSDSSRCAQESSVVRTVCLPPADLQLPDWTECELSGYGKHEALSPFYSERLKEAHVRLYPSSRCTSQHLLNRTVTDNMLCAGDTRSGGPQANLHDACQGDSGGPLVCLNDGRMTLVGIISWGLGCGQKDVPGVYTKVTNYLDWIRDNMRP

B1: recombinant placental bikunin (1-170) from baculovirus / Sf9 cells (other)
chain: ADRERSIHDFCLVSKVVGRCRASMPRWWYNVTDGSCQLFVYGGCDGNSNNYLTKEECLKKCATVTENATGDLATSRNAADSSVPSAPRRQDSEDHSSDMFNYEEYCTANAVTGPCRASFPRWYFDVERNSCNNFIYGGCRGNKNSYRSEEACMLRCFRQQENPPLPLGSK
modifications: asparagine 30 silent in sequencing, consistent with glycosylation
notes: signal peptide correctly removed (N-terminus ADRER); also called Recombinant Bikunin; Sf9-derived human placental bikunin (1-170)
Turning to B1, the Ki with human factor Xa was 180000 pM; with human plasmin [1], 230 pM; with human tissue kallikrein it was 40 pM; with Factor XIa, 3000 pM; in assay [2], 120 pM; in assay [3], 64 pM. For the same molecule, the Ki with Tissue Factor VIIa is 800000 pM; in assay [4], under 60000 pM; with human plasma kallikrein it was 180 pM.

B2: synthetic placental bikunin (7-64), first preparation (other)
chain: IHDFCLVSKVVGRCRASMPRWWYNVTDGSCQLFVYGGCDGNSNNYLTKEECLKKCATV
modifications: ends and bridges not checked; also: may be incompletely deprotected before refolding
notes: also called placental bikunin fragment (7-64); KID1
As to B2, the values for the Ki (with Bovine chymotrypsin; in assay [5]) were 600 pM and 400 pM, respectively.

B3: native human placental bikunin isolated from human placenta (other)
chain: ADRERSIHDFCLVSKVVGRCRASMPRWWYNVTDGSCQLFVYGGCDGNSNNYLTKEECLKKCATVTENATGDLATSRNAADSSVPSAPRRQDSEDHSSDMFNYEEYCTANAVTGPCRASFPRWYFDVERNSCNNFIYGGCRGNKNSYRSEEACMLRCFRQQENPPLPLGSKVVVLAGAVS
modifications: asparagine 30 silent in sequencing, likely glycosylated
notes: Soluble protein purified from placenta; A minor species starts at residue 6; also called native Placental Bikunin (1-179)
In the case of B3, the Ki in assay [6] came to 130 pM; with human plasmin [7], 1900 pM.
